# Test results: the Human Domainome abundance scans (Beltran et al. 2025)
# ± gives the uncertainty stated by the source.
# B1: POU domain, class 3, transcription factor 4, residues 280 to 335; numbered along this chain, P49335 (parent)
# chain: KKRTSIEVSVKGVLETHFLKCPKPAAQEISSLADSLQLEKEVVRVWFCNRRQKEKR
# Variants of: B1
# Test: abundance fitness (aPCA) (normalised: wild type 0, dead -1); higher = more abundant; growth selection in yeast, the domain comes from the species named
# Details: Homo sapiens
row,Variant,abundance fitness
1,KKRTSIEVSVKGVLETHFLKCPKPAAQEISSLASSLQLEKEVVRVWFCNRRQKEKR [D34S],-0.317 ± 0.13
2,KKRTSIEVSVKGVLETHFLKCPKPAAQEISSLAMSLQLEKEVVRVWFCNRRQKEKR [D34M],-0.479 ± 0.21
3,KKRTSIEVSVKGVLETHFLKCPKPAAQEISSLADSLQLEKEVVRVWFCQRRQKEKR [N49Q],0 ± 0.16
4,KKRTSIEVSAKGVLETHFLKCPKPAAQEISSLADSLQLEKEVVRVWFCNRRQKEKR [V10A],0.393 ± 0.18
5,KKRTSIEVSVKGVLETHFLKCPKPAAQEISSVADSLQLEKEVVRVWFCNRRQKEKR [L32V],-0.625 ± 0.2
6,KKRTSIEVSVKGVLETHRLKCPKPAAQEISSLADSLQLEKEVVRVWFCNRRQKEKR [F18R],-0.812 ± 0.12
7,KKRTSIEVSVKGVLETHMLKCPKPAAQEISSLADSLQLEKEVVRVWFCNRRQKEKR [F18M],-0.893 ± 0.22
8,KKRTSIEVSVKGVLETHLLKCPKPAAQEISSLADSLQLEKEVVRVWFCNRRQKEKR [F18L],-1.03 ± 0.16
9,KKRTSIEVSVKGVLETHFLKCVKPAAQEISSLADSLQLEKEVVRVWFCNRRQKEKR [P22V],-0.469 ± 0.13
10,KKRTSIEVSVKGVLETHFLKCHKPAAQEISSLADSLQLEKEVVRVWFCNRRQKEKR [P22H],-0.513 ± 0.26
11,KKRTHIEVSVKGVLETHFLKCPKPAAQEISSLADSLQLEKEVVRVWFCNRRQKEKR [S5H],-0.187 ± 0.37
12,KKRTGIEVSVKGVLETHFLKCPKPAAQEISSLADSLQLEKEVVRVWFCNRRQKEKR [S5G],0.27 ± 0.12
13,KKRTSIEVSVKGVLETHFLKCPKPAAQEISSLADSLQLEKEVVRVMFCNRRQKEKR [W46M],-0.932 ± 0.26
14,KKRTSIEVSVKGVLETHFLKCPKPAAQEISSLADSLQLEKEVVRVKFCNRRQKEKR [W46K],-0.673 ± 0.25
15,KKRTSIEVSVKGVLETHFLKCPKPAAQEISSLADSLQLEKEVVRVPFCNRRQKEKR [W46P],-0.953 ± 0.29
16,KKRTSIEVSVKGVLETHFLKCPKPAAQEISSLADSLQLHKEVVRVWFCNRRQKEKR [E39H],-0.551 ± 0.43
17,KKRTSIEVSVKGQLETHFLKCPKPAAQEISSLADSLQLEKEVVRVWFCNRRQKEKR [V13Q],0.205 ± 0.35
18,KKRTSIEVSVKGVLETHFLKWPKPAAQEISSLADSLQLEKEVVRVWFCNRRQKEKR [C21W],-0.846 ± 0.22
19,KKRTSIEVSVKGVLETHFLKIPKPAAQEISSLADSLQLEKEVVRVWFCNRRQKEKR [C21I],-0.58 ± 0.21
20,KKRTSIEVSVKGVLETHFLKCPKPAAQEISSLADSLQLEKEVVRVWECNRRQKEKR [F47E],-0.872 ± 0.23
21,KKRTSIEVSVKGVLETHFLKCPKPAAQEISSLADSLQLEKETVRVWFCNRRQKEKR [V42T],0.207 ± 0.18
22,KKRTSIEVSVQGVLETHFLKCPKPAAQEISSLADSLQLEKEVVRVWFCNRRQKEKR [K11Q],0.14 ± 0.43
23,KKRTSIEVSVKGVLEIHFLKCPKPAAQEISSLADSLQLEKEVVRVWFCNRRQKEKR [T16I],-0.428 ± 0.27
24,KKRTSIEVSVKGVLEKHFLKCPKPAAQEISSLADSLQLEKEVVRVWFCNRRQKEKR [T16K],0.572 ± 0.15

row,Variant,abundance fitness
1,KKRTSIEVSVKGVLETHFLKCPKPAAQEISSLADGLQLEKEVVRVWFCNRRQKEKR [S35G],-0.638 ± 0.15
2,KKRTSIEVSVKGVLETHFLKCPKPAAQEISSLADALQLEKEVVRVWFCNRRQKEKR [S35A],0.071 ± 0.14
3,KKRTSIEVSVKGVLETHFLKCPKPAAQEISSLADCLQLEKEVVRVWFCNRRQKEKR [S35C],-0.383 ± 0.17
4,KKRTSIEVSVKGVLETHFLKCPKPAAQEISSLADNLQLEKEVVRVWFCNRRQKEKR [S35N],-0.45 ± 0.24
5,KKRTSIEVSVKGVLETHFLKCPKPAAQEISCLADSLQLEKEVVRVWFCNRRQKEKR [S31C],-0.414 ± 0.32
6,KKRTSIEVSVKGVLETHFAKCPKPAAQEISSLADSLQLEKEVVRVWFCNRRQKEKR [L19A],-0.187 ± 0.14
7,KKRTSIEVSVKGVLWTHFLKCPKPAAQEISSLADSLQLEKEVVRVWFCNRRQKEKR [E15W],-1.04 ± 0.24
8,KKRTSIEVSVKGVLATHFLKCPKPAAQEISSLADSLQLEKEVVRVWFCNRRQKEKR [E15A],-0.539 ± 0.16
9,KKRTSREVSVKGVLETHFLKCPKPAAQEISSLADSLQLEKEVVRVWFCNRRQKEKR [I6R],-0.292 ± 0.12
10,KARTSIEVSVKGVLETHFLKCPKPAAQEISSLADSLQLEKEVVRVWFCNRRQKEKR [K2A],-0.433 ± 0.21
11,KKRTSIEVSVKGVLETHFLKCPKPAAQEISSLADSLQLEKEVVRGWFCNRRQKEKR [V45G],-0.25 ± 0.14
12,KKRTSIEVSVKGVLETHFLKCPKPAAQEISSLADSLQLEKEVVRWWFCNRRQKEKR [V45W],-0.337 ± 0.18
13,KKRTSIEVSVKGVLETHFLKCPKPAAQEISSLNDSLQLEKEVVRVWFCNRRQKEKR [A33N],-0.964 ± 0.38
14,KKRTSIEVSVKGVLETHFLKCPKPAAQEISSLRDSLQLEKEVVRVWFCNRRQKEKR [A33R],-0.667 ± 0.15
15,KKRTSIEVSVKGVLETHFLKCPKPAAQEISSLADSLQVEKEVVRVWFCNRRQKEKR [L38V],-0.269 ± 0.15
16,KKRTSIEVSVKGVLETHFLTCPKPAAQEISSLADSLQLEKEVVRVWFCNRRQKEKR [K20T],-0.129 ± 0.16
17,KKRTSIEVSVKGVLETHFLKCPKPGAQEISSLADSLQLEKEVVRVWFCNRRQKEKR [A25G],0.313 ± 0.1
18,KKRTSIEVSVKGVLETHFLKCPKPAAQEISSLADSLQLEKEVVRVWFCNYRQKEKR [R50Y],-0.559 ± 0.34
19,KKRTSIEVSVKGVLETHFLKCPKPAAQEISSLADSLQLEKEVVRVWFCNLRQKEKR [R50L],-0.93 ± 0.2
20,KKRTSIEVSVKGVLETHFLKCPKPAAQEISSLADSLQLEYEVVRVWFCNRRQKEKR [K40Y],0.009 ± 0.2
21,KKRTSIEVSVKGVLETHFLKCPKPAAQEISSLADSLQLEKEVVRVWFCNRRQKEAR [K55A],-0.1 ± 0.17
22,KKRTSIEVSVKGVLETHFLKCPGPAAQEISSLADSLQLEKEVVRVWFCNRRQKEKR [K23G],-0.664 ± 0.14
23,KKNTSIEVSVKGVLETHFLKCPKPAAQEISSLADSLQLEKEVVRVWFCNRRQKEKR [R3N],0.033 ± 0.24
